Laboratory results from patent US20140378659A1.

Target: human oxidized LDL (copper-oxidized low-density lipoprotein from plasma of a healthy individual) (human) (UniProt P04114)
Assay: cell-based or functional assay

uptake of DiI-labeled oxidized LDL into LOX-1-expressing cells (fluorescence intensity): > 90%
B1: Human-derived Del-1 (developmental endothelial locus-1), recombinant protein having a His tag added to the C-terminus (protein, not shown: small tags and cut ends)
chain: DICDPNPCENGGICLPGLADGSFSCECPDGFTDPNCSSVVEVASDEEEPTSAGPCTPNPCHNGGTCEISEAYRGDTFIGYVCKCPRGFNGIHCQHNINECEVEPCKNGGICTDLVANYSCECPGEFMGRNCQYKCSGPLGIEGGIISNQQITASSTHRALFGLQKWYPYYARLNKKGLINAWTAAENDRWPWIQINLQRKMRVTGVITQGAKRIGSPEYIKSYKIAYSNDGKTWAMYKVKGTNEDMVFRGNIDNNTPYANSFTPPIKAQYVRLYPQVCRRHCTLRMELLGCELSGCSEPLGMKSGHIQDYQITASSIFRTLNMDMFTWEPRKARLDKQGKVNAWTSGHNDQSQWLQVDLLVPTKVTGIITQGAKDFGHVQFVGSYKLAYSNDGEHWTVYQDEKQRKDKVFQGNFDNDTHRKNVIDPPIYARHIRILPWSWYGRITLRSELLGCTEEE
